Results: the supplement of paper PMC7877785
± gives the uncertainty stated by the source.

Assay: self-splicing fitness, log relative to wild type (ln ratio); higher = more splicing; Tetrahymena group I intron in knt gene, E. coli kanamycin selection, DiMSum; sequences stand for … in CUCUCU…GGAGGGAAAAGUUAUCAGGCAUGCACCUGGUAGCUAGUCUUUAAACCAAUAGAUUGCAUCGGUUUAAAAGGCAAGACCGUCAAAUUGCGGGAAAGGGGUCAACAGCCGUUCAGUACCAAGUCUCAGGGGAAACUUUGAGAUGGCCUUGCAAAGGGUAUGGUAAUAAGCUGACGGACAUGGUCCUAACCACGCAGCCAAGUCCUAAGUCAACAGAUCUUCUGUUGAUAUGGAUGCAGUUCACAGACUAAAUGUCGGUCGGGGAAGAUGUAUUCUUCUCAUAAGAUAUAGUCGGACCUCUCCUUAAUGGGAGCUAGCGGAUGAAGUGAUGCAACACUGGAGCCGCUGGGAACUAAUUUGUAUGCGAAAGUAUAUUGAUUAGUUUUGGAGUACUCGUGGUCG
Procedure, shortened: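 The eight P1ex-region nucleotides of an intron in the knt kanamycin-resistance gene on pET-22b(+) were all randomised and the library put into E. coli BL21(DE3). Six replicate transformations were grown overnight at 37°C or 30°C on LB agar with or without 25 μg/mL kanamycin, together with 100 μg/mL carbenicillin, 50 μM IPTG and 0.2% rhamnose. Colonies were pooled and amplicon-sequenced on an Illumina HiSeq 2500. Fitness from DiMSum is the error-weighted combination of wild-type-normalised replicate fold changes, kanamycin over none.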

Sequence	self-splicing fitness (ln) (30 °C)	self-splicing fitness (ln) (37 °C)
CCAAAGCAAUAUUACGAAAU	-3.31 ± 0.19	-3.2 ± 0.28
CCAAAGCAAUAUUACGACCA	-3.08 ± 0.34	-1.78 ± 0.45
CCAAAGCAAUAUUACGACGU	-3.76 ± 0.22	-2.8 ± 0.21
CCAAAGCAAUAUUACGAGUG	-0.346 ± 0.039	-0.144 ± 0.058
CCAAAGCAAUAUUACGCCAC	-3.59 ± 0.3	-2.01 ± 0.47
CCAAAGCAAUAUUACGCCCU	-3.49 ± 0.42	-3.01 ± 0.27
CCAAAGCAAUAUUACGCCUA	-4.18 ± 0.33	-3.12 ± 0.35
CCAAAGCAAUAUUACGCGUU	-3.79 ± 0.12	-2.89 ± 0.16
CCAAAGCAAUAUUACGCUCG	-1.97 ± 0.11	-0.271 ± 0.12
CCAAAGCAAUAUUACGCUGG	-4.28 ± 0.23	-2.46 ± 0.17
CCAAAGCAAUAUUACGGAGC	-3.3 ± 0.15	-2.69 ± 0.19
CCAAAGCAAUAUUACGGAUA	-2.87 ± 0.22	-2.17 ± 0.31
CCAAAGCAAUAUUACGGCCG	-0.467 ± 0.1	-0.508 ± 0.12
CCAAAGCAAUAUUACGGGAA	-3.01 ± 0.18	-3.66 ± 0.3
CCAAAGCAAUAUUACGGGGU	-3.24 ± 0.15	-3.43 ± 0.23
CCAAAGCAAUAUUACGGGUC	-4.39 ± 0.23	-3.1 ± 0.22
CCAAAGCAAUAUUACGUACG	-0.00591 ± 0.081	0.0861 ± 0.084
CCAAAGCAAUAUUACGUAGC	-3.81 ± 0.16	-2.48 ± 0.16
CCAAAGCAAUAUUACGUCCA	-2.8 ± 0.26	-2.19 ± 0.3
CCAAAGCAAUAUUACGUCCU	-4.59 ± 0.31	-2.33 ± 0.21
CCAAAGCAAUAUUACGUGAG	-0.357 ± 0.049	0.0847 ± 0.073
CCAAAGCAAUAUUACGUGCU	-4.12 ± 0.18	-2.88 ± 0.18
CCAAAGCAAUAUUACGUUCU	-3.78 ± 0.26	-2.3 ± 0.23
CCACAGCAAUAUUACGAAAC	-2.27 ± 0.29	-1.8 ± 0.34

Sequence	self-splicing fitness (ln) (30 °C)	self-splicing fitness (ln) (37 °C)
CCACAGCAAUAUUACGAAAG	-1.55 ± 0.066	-0.182 ± 0.082
CCACAGCAAUAUUACGACGG	-3.63 ± 0.12	-1.63 ± 0.1
CCACAGCAAUAUUACGAGAU	-3.37 ± 0.14	-1.65 ± 0.14
CCACAGCAAUAUUACGAGCA	-3.6 ± 0.18	-2.89 ± 0.19
CCACAGCAAUAUUACGAUAG	-1.17 ± 0.065	0.206 ± 0.084
CCACAGCAAUAUUACGAUGC	-3.7 ± 0.17	-2.66 ± 0.21
CCACAGCAAUAUUACGAUGG	-4.02 ± 0.14	-2.5 ± 0.13
CCACAGCAAUAUUACGCAGC	-3.88 ± 0.22	-2.83 ± 0.25
CCACAGCAAUAUUACGCCAA	-2.96 ± 0.2	-2.1 ± 0.23
CCACAGCAAUAUUACGCCAC	-3.52 ± 0.27	-2.54 ± 0.27
CCACAGCAAUAUUACGCCGC	-3.12 ± 0.21	-3.49 ± 0.27
CCACAGCAAUAUUACGCGGC	-3.19 ± 0.24	-3.09 ± 0.35
CCACAGCAAUAUUACGGACA	-3.12 ± 0.21	-2.51 ± 0.18
CCACAGCAAUAUUACGGAGG	-3.92 ± 0.22	-1.16 ± 0.12
CCACAGCAAUAUUACGGCAC	-4.06 ± 0.21	-2.87 ± 0.22
CCACAGCAAUAUUACGUAAC	-3.47 ± 0.2	-1.35 ± 0.16
CCACAGCAAUAUUACGUCAA	-2.92 ± 0.15	-2.22 ± 0.21
CCACAGCAAUAUUACGUCUA	-3.53 ± 0.24	-2.43 ± 0.17
CCACAGCAAUAUUACGUGCG	-2.79 ± 0.11	-1.72 ± 0.12
CCAGAGCAAUAUUACGCACC		-2.37 ± 0.34
CCAGAGCAAUAUUACGCAGC	-3.64 ± 0.28	-1.77 ± 0.24
CCAGAGCAAUAUUACGCGGC	-3.88 ± 0.39	-2.96 ± 0.24
CCAGAGCAAUAUUACGCUGU	-3.95 ± 0.44	
CCAGAGCAAUAUUACGGAAG	-2.32 ± 0.13	-2.1 ± 0.19
